From a protein production outcome set (Wang et al. 2014)

assay: label from the status in PepcDB records

Sequence | protein production
MDCSESCHLKEPSKDRAFTHKPVVDEFKKSVHGAGHAPGATKDFHGGNRLEEETGQQNPSCRRCHSNTPYIKDANLERFKQELHHTETECGTCHQGETWRNQFSGHILRRLVGKNYDKMEANAMCVDCHGDHEAMAKVEIQDPETRERKKASFRFAHATDSYAKTLHGRLLAVNDESGASCIDCHAPDGFRHGILRDESKDSPTHPDRLGETCSQAGCHGYAKSPLNLGFLNTDLHDLDFLRMEDLSFALDFSRLDSAWYAAAWVLGPLGLIFLTSSLLSPLSRSRRAPVTEVVGYDHFQRVMIGGGSAKDGLWRRIRGRLVGGTPAVPVPAPLVEPGAPITSLTILFGSQTGNGEGVAADLEARLKAWGYSVELADMADYDPREIVNERLLFVIVSTHGEGQPPLPAEKLHGYLYAETAPRLEHLKFAVFALGDSSYKHFCKAGKDFDAFLQRLGASRVLDRVDADADFEEAAAAWIDAVLGCCRAIIGDTGIERPLEAEPVDHAVAKSGYGKTHPYPAAVLRNVNLNGEGSAKETRHIEIDLGDSGLSYEPGDALGVYPKNDPAYVEALLAALQADGYSEVTLGKETLSLREAFYKHLDITGLSRVLVEKYAELCDSRVLAGLLADPDPARLEGYLWGRQIIDLVEDFPIQGISPQTFVNVLRRLPPRLYSIASSMKAHPGQVHLTVGAVRYHAHGRNREGVCSTYLAGRIGPGERLAIFVQPNKHFRLPEDPETPLIMVGPGTGIAPFRGFVEEREVTGARGRNWLYFGDQRRATDYLYREEWEDKLRRGVLTRLDLAFSRDQERKVYVQTRMLENAREMYAWLEEGACFYVCGDASRMAQDVHRALLAIVMQEGGRTQEQAEEYLEAMAASRRYLRDVY | failed
MDDEGLPRFAGVVYDQEEGIDALVGDFVEGLLARKLRVGGLLQGREPDAEGVTRTVVRVIGKARRIVISQNLGRHSTACSIDSAAIAEAAVALRQALEERPALIVGNRFGHLELEGAGMSEEMLDILASGTPFLIPVARRFEEGWRRFTGDMGDLLDPRPAALTAWFEALAPVTALEHHHHHH | failed
MDDGDTADDIMDATYRALCTHGYADLTMQDIADESDKSKAALHYHYDSKHDLLCAFLEYLYDGFVDRIEDPAGETPHERLLSLIDSVLDKPDDGSEEFGTAILEIRAHAPYEPGFRERLTKFDDYLVDELEVILEDGIADGTFKSDLDADETAQFIVTVLTGAATERVTTGRPVKCTRRMLTEYVETHLLDGQQEVTA | not failed
MDDISVSKSNHGNVVVLNIKASSLADTSLPSNKHESSSPPLLSVHFLQKLLAELVGTYYLIFAGCAAIAVNAQHNHVVTLVGIAVVWGIVIMVLVYCLGHLSAHFNPAVTLALASSQRFPLNQVPAYITVQVIGSTLASATLRLLFDLNNDVCSKKHDVFLGSSPSGSDLQAFVMEFIITGFLMLVVCAVTTTKRTTEELEGLIIGATVTLNVIFAGEVSGASMNPARSIGPALVWGCYKGIWIYLLAPTLGAVSGALIHKMLPSIQNAEPEFSKTGSSHKRVTDLPL | failed
MDDVVEELLRIVVESLQYEEGNLNEAVDLAINFSTKNSIFFDQLLSLSTYCGSEGSYELAYVFAKTTANLSTGSEKAVAHHNAGTASYFLNLPMEAEEHYKLALQADPKHVNTHSNYGLLLSDMGRRDEAEQQYKLALKLDPKHVNTHYNYGILLYDMRRLDEAGEQYKLALESEPKHVKTHYNYGNLLSDMGSLDEAEEQYKLALESEPNDADIHYNYGLLLYNMESLDEAEEQYKLALESEPNDASTHSNYGILLSDMGRRDEAEEQYKLALESDPKHVNTHYNYGNLLSDMGRLDEAEEQYKLALESDPKHVKTHYNYGNLLSDMGRLDEAEEQYKLALESDPNDASIHSNYGILLSDMGRHEEAEEQYKLALETDPNDADIHYNYGNLLKRMGRLDEVEKQYILALEADPKHVNTHYNYGKLLEQMGRLDEAEKQYKIAIGIDPKMPNSHGAYGLLLFFQDLEEEAIKETEVASRLCRENGDKVKEHLSLAWLYEKFANKYYNLKDYKKSGEYAEISGDEYIEAGKQAGESFKDTSLTKGYTLKGRAKIRKLEIKTPFYKDIIKRIWNKESYEIEKFTKIINCIKDASICYEKAAKASPKDNQLCNACSISMSCLSEMLDYMFAVIKQKKTPELEDKLKNWNEKLSIAKGAYQEHSKGELFIESLYKLMGCIQNLDKYKKYGTREYGRAFEECRKELTEIANNIEGPIQKIIENVTKKMDVCRLKQLPYAGTETGYIPQPNKLSQFLKWILDPKRIGIGVFGIIITVIVNHYNEYLFSLIKRTVTMLLSKI | failed
MDELIKILHAQFGHASFRPGQREVVEDVLAGRDVLAMLPTGSGKSLCYQLPAYLLPGSVLVVSPLVSLMEDQVEQLRRRGEKRVIAFHSLLDAEEKWQALASLPDFRFIYASPEMLQSAKFLTALGRTRISLFVVDEAHCISQWGYDFRPDFLKLGTVRRALGSPPCLALTATAPPEVRDDIVRTLGMERACLHIYSVDRPNIALKVEYCLSAEEKAARLVEYARQLEGPGIVYFSSRQWAEEMARRLEQSGAGRVAYYHAGMDGEQRLLVQQQFLYGQLDIVCCTSAFGMGVNKENVRFVLHFHMPAQLEAYVQEIGRAGRDGAPSLAVLFYADGDRAIAQAVAEAELPDPHELREWCWRLPDNVAVEQWNAAIEASGFTEIQKRLLTYLLEWGQTAPPGRLTAEVKEQLYERMAAAIETRRRWKRKKLHEMDDWVHTSSCRRAMIVRAFGEELMDKPGDCCDCCGLRLDAYMRDTRRLAAAPIRHWREELWQMFFSRGRQDETAK | failed
MDEQEFRKQLTLKPVEEEHIDQFNELLSYVFQVTEADIEESGFENKRAFIKSKQPILELSKVFGWFHENQLISQIAIYPCEVNIHGALYKMGGVTGVGTYPEYANHGLMKDLIQTALEEMRQDKQWISYLFPYNIPYYRRKGWEIMSDKLSFKIRDTQLPKTVPVPGMIERLAVDHPDVFDVYARFARQNHGALIRSAFNWEEYWRFENEEERTAAVYYGANQEPLGVLFYWVADEVFHIKEMFYLNQEARNGLWNFITAHFSMVYWVKGDIYKNEPLAFLLEDSQIKESIEPYYMARIVDVKAFLENFPFESTAKPFHFVVKDPVAEWNNGIFGLIWDENDQVTITDEPLGTAVHLDIQTLTCLVMNYRRPSYLHRIERIDTDKETLNSLERIFPDQEAYFSDYF | not failed
MDFHIRKATNSDAEAIQHVATTSWHHTYQDLIPSDVQDDFLKRFYNVETLHNRISATPFAVLEQADKVIGFANFIELEKGKSELAAFYLLPEVTQRGLGTELLEVGMTLFHVPLPMFVNVEKGNETAIHFYKAKGFVQVEEFTEDFYGYPLETIRFNLNHHAFEEE | not failed
MDFHTDTIILLAGLLFIVGVITAKFSTRLGVPALVLFILVGMLVGSDGLGLIHFDFSQAHFAQLIGIFALVIILFEGGLQTKWKTVQSVAVPSLSLATFGVLITSTLVAVAAKYVLGVSWLEAYLFGAIVGSTDAAAVFAVLKEQNIKDRLATTLEAESGTNDPMAVFLTLSLIELITIGSMNPLHLFGSFLWQMGAGLILGFGLGKLGSYSINKINLDSSGLYPVFALAFALLTYSVTAMIGASGLLAVYVAALVIGNQDLTYRHSIFRFNEGFAWMMQMLMFIILGLLVFPNQLFEASIFIKGILLSLILMLVARPVAVFLTTIKMRFDWKEKLFLSWAGLRGAVPIVLATFPMTAGLENSPLFFNVVFFVVLTSALIQGSTIAHFANKLQLTGPQKTTPLHSLELVSIGKANAEIVELEMKQDTPVIGKTLEEINLPKDVLVNAIIRDEQLITPYGKTTIQADDILYVLVSKKKKRQLKELFQAKES | failed
MDGALRNRSARVVDSEHRTHPPGIRRSVCWSLLALDSRLHGRTSTQDRQVGCGRLWCRPSEARCGAMKLLVTGGGGFLGQALCRGLRARGHEVVSFQRGNYPVLRSLGVGQIRGDLADPQAVRHALAGIDAVFHNAAKAGAWGSYDSYHQANVVGTQNVIEACRATGVPRLIYTSTPSVTHRATNPVEGLGADEVPYGDNLRAAYAATKAIAERAVLAANDAQLATVALRPRLIWGPGDNHLLPRLAARARAGRLRMVGDGSNLVDSTYIDNAAQAHFDAFEHLAVGAACAGKAYFISNGEPLPMRELLNRLLAAVDAPAVTRSLPFKTAYRIGAVCETLWPLLRLPGEVPLTRFLVEQLCTPHWYSMQPARRDFGYVPRISIEEGLQRLRSSSSNDIAITG | failed
MDGFVQWMEKHFMPKASVIAAQRHLVAIRDAFVVTMPLMILGALAVLINNIPIPGYEDFLNKIFPMMYNDAPIWKSFGGNIWNGTFAIFAVLVAFLVAHNLVKSYGKDGIAAGTVSVASFFAVGGLEGMGATGLFIALIIALISGELFQRLSGNPKLVIKMPDGVPPAVAKSFAALLPAMITISLFSLITSILFALGIDNIVISFYEAVQQPFMGLANSYPSALLLAFITPFLWFFGLHGANMVDPLMQTINVPAIDANIKALEAGKAIPYIVNKPFFDSFVNLGGTGATLGLLIAIFIVGRRNKPYKVITNLSLAPGLFNINEPVMFGLPIVLNPIMFIPFILVPMVLVTVAYVATATGLVPAATFMPPWVTPPIIGGFLATKSIAGGVLAAVNLLISILIYMPFVKVATDQYLKQEAAAEAAE | failed
MDGKRVWLSDDELTRFIEQAETPHQRLAFLLAGRVGLRRSEIIEVCPQDLVDGPTGDHIRVWESYAKRDKYREPPVPQEVVTIAETLAYQQDDDEPLLDVAGSTVYRWVRRAADELEEETGDRGWQYLDVHDLRRTWGTYLLEQGVIPSVVMSFGGWEDWDTFRKHYLGEFSLEHHHHHH | not failed
MDGSIRVSAKTVDDAITEALIQLGVTSDRLEYEVIEKGSSGFLGIGMKQAVIEARRKPEPVAEVKEETIPVEEVKPSVVKEQVSEPVQEKQEEKAEEEPARKKATELAEVSDEAIKAVEAFLNDTLKAMDMDVEIVSEVDSEGALSVEMKGSNMGILIGKRGQTLDALQYLANRVANKHQDGYVRVKLDTENYRARREETLRHLAKNIAFKVKRTRRAVSLEPMNPYERRIIHAALQSDPHVTTHSEGEEPYRKVVVTLKR | failed
MDGTPGHNAINRLQLVATLAEREVMRYTPAGVPIVNCLLSYSGQAMEAQAARQVEFSIEALGAGKMASVLDRIAPGTVLECVGFLARKHRSSKALVFHISGCNVFVKDLEHHHHHH | failed
MDGVGAHAHTGELRSAQALRSASLWLWPLLCWALLAGWPLGAHPLKHTAYHTVTRWDMDDGLPHNLVHAVAQGSDGVIWLGTWEGVARFNGRDFTVFDRQNTPGVELGGVFVVVRDGDGMLFGTAFDGVYRHQDGRWQQLGDASARHLAVSALLRRADGALWVGTPQTLYRIELDGRVVDVGRQAGLPRARITALSTDARGDLWIGTDVGLYQLPLGASAATAWGQAHGMADTPVRRLASDRQGGLLVAGDDGVWWWSRGGGLQRFRQGQRVDSLVMDRSGHLWMSLSAGTLVVHSGPDDPDEQIAISGVASPALLEDAEGLIWVGSTHGLFRVAEGAAHGVTIDDGLASDYVRSVLQTADGTVWVGSAVGLDRWRDGQIARVPFSRGSAGRVLEQSVLALADAGDGGVWAGTYSQGVLRLDAQGAVVQRIGAAEGLSSLSVRAVLPDGDALWIGTTAGLVRWHDGRARRYTAADGVPDGSVQVLYRDAQGTIWSGTDRGMTALSPDGGTRAWLGEQDFPGQNAFDFLRDPSGDLWIASDRGLLRLRGERFQVYDHRVGLPRDKVFRVIDDGRGYLWLSSNHGVFRIARRDFDQIDAGTREQLSVEVVDRSDGMPGNQGNGSSAPAGWLTQTGQLLFPTAAGLGVIDPARVGTLQGHRVPIVIERLVVDGMVQPLDGPHRLSADTRRIAIGYAGLNFRGPDKVRYRYRLDGFDPDWVDADSATEAVYTNLPPGRFRFRVQAMSLPVDWRQAALLGETSVVLELAPPWWRRGEVIGLGVLCLASVIYGFYLWRTASYRRRQRELNVVIDKRTRELSDKNLALQQASQEREALMRQLEYRASHDVLTALPNRREAERVLQQWLDEAQAGGAPLALALADIDHFKRINDAHGHEVGDAVLRAVGEVLADQEHAHCFAARHGGEEFLLAVTGLEAAHARALFEQQRQRLGTIAIAADEATVQCTASMGMAMSNEAHSRRELLALADRRLYHAKRQGRDRLIDQ | failed
